From the supplement of paper PMC6757056
± gives the standard deviation of the averaged measurements.

B1: library; a variant is named by its letters at N, in order (parent)
chain: GCUGUCACCGAGAAACUGUGAAGUAUAUCUUAAACCUGGGCACUUAAAAGAUAUAUGGAGUUAGUAGUGCAACCUGCUCGGUCUGAUGAGUCCNNNNNNGGACGAAACAGC

What was measured:
[1] = variants of: B1; assay: FACS-Seq fitted mean relative fluorescence mCherry/BFP without ligand (log10 relative fluorescence); HEK293T; ligand: cyclic di-GMP (c-di-GMP-II aptamer); higher = higher reporter protein expression; conditions: ligand present: no
How it was run: (§1)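 HEK293T libraries were lentivirally transduced with an mCherry reporter carrying the ribozyme switch and an EF1α-BFP marker, enriched, and incubated for 48 h with or without ligand before sorting into 6 bins by mCherry/BFP. Genomic DNA from each bin was PCR-amplified, barcoded and sequenced on MiSeq. Fluorescence is the fitted normal mean of the bin counts. The fit used log10(mCherry/BFP), and means were scaled to five spiked-in control ribozymes.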

[2] = variants of: B1; assay: normalized RNA/DNA level without ligand (relative to sTRSVctl = 100) (log10 (% of sTRSVctl)); HEK293T; ligand: cyclic di-GMP (c-di-GMP-II aptamer); higher = less ribozyme self-cleavage, higher mRNA level; conditions: reporter: mCherry (pCS4076), ligand present: no
Method: (§2)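 Hammerhead (sTRSV) ribozyme switch libraries with a ligand aptamer grafted on stem I and a randomized N4-6 loop II, cloned into the 3' UTR of mCherry and transiently transfected into HEK293T cells; RNA-Seq 72 h post transfection with ligand added 1 h before transfection; RNA read count / plasmid DNA read count normalized to the non-cleaving sTRSVctl (x100), log10; sequences with >100 DNA reads. FACS-Seq: lentiviral library sorted into 6 bins after 48 h ligand, log-normal fit mean of mCherry/BFP scaled to controls. Printed sequences are partial switch sequences.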

[3] = variants of: B1; assay: FACS-Seq fitted mean relative fluorescence mCherry/BFP with ligand (log10 relative fluorescence); HEK293T; ligand: cyclic di-GMP (c-di-GMP-II aptamer); ligand concentration (+) FACS-Seq: 1 mM; higher = higher reporter protein expression; conditions: ligand present: yes
How it was run: as §1

[4] = variants of: B1; assay: normalized RNA/DNA level with ligand (relative to sTRSVctl = 100) (log10 (% of sTRSVctl)); HEK293T; ligand: cyclic di-GMP (c-di-GMP-II aptamer); ligand concentration (+) RNA-Seq: 1 mM; higher = less ribozyme self-cleavage, higher mRNA level; conditions: reporter: mCherry (pCS4076), ligand present: yes
Method: as §2

Row | Variant | FACS-Seq fitted mean (log10) [1] | normalized RNA/DNA level without ligand (log10) [2] | FACS-Seq fitted mean (log10) [3] | normalized RNA/DNA level with ligand (log10) [4]
1 | UCGGAA | -0.484 ± 0.069 | 1.34 ± 0.14 | -0.286 ± 0.048 | 1.49 ± 0.11
2 | GCAGCU | -0.242 ± 0.076 | 1.65 ± 0.018 | -0.0553 ± 0.039 | 1.78 ± 0.11
3 | CCAUAA | -0.533 ± 0.16 | 1.44 ± 0.14 | -0.252 ± 0.0063 | 1.67 ± 0.079
4 | ACGCGG | -0.429 ± 0.041 | 1.69 ± 0.034 | -0.107 ± 0.078 | 1.8 ± 0.13
5 | GCAUGU | -0.424 ± 0.036 | 1.49 ± 0.073 | -0.147 ± 0.022 | 1.69 ± 0.072
6 | CCGCCA | -0.184 ± 0.045 | 1.645 ± 0.0073 | 0.127 ± 0.058 | 1.85 ± 0.14
7 | CCAGAC | -0.24 ± 0.11 | 1.631 ± 0.0075 | 0.128 ± 0.0098 | 1.83 ± 0.16
8 | CCAGAA | -0.598 ± 0.013 | 1.34 ± 0.14 | -0.277 ± 0.015 | 1.58 ± 0.1
9 | ACCACC | -0.899 ± 0.064 | 1.6 ± 0.088 | -0.618 ± 0.019 | 1.76 ± 0.097
10 | UCCCGU | -0.0215 ± 0.15 | 1.72 ± 0.022 | 0.3 ± 0.015 | 1.83 ± 0.15
11 | CCGAGC | -0.204 ± 0.022 | 1.78 ± 0.059 | 0.0994 ± 0.021 | 1.88 ± 0.14
12 | CCGAGA | -0.211 ± 0.078 | 1.46 ± 0.11 | 0.0834 ± 0.071 | 1.66 ± 0.086
13 | GCAGUA | -0.229 ± 0.042 | 1.59 ± 0.035 | 0.0693 ± 0.0072 | 1.7 ± 0.12
14 | ACAUUG | -0.689 ± 0.036 | 1.53 ± 0.024 | -0.401 ± 0.11 | 1.69 ± 0.13
15 | ACAUUA | -0.21 ± 0.0052 | 1.41 ± 0.087 | 0.0676 ± 0.069 | 1.62 ± 0.078
16 | UCCCUG | 0.234 ± 0.092 | 1.776 ± 0.0073 | 0.44 ± 0.0075 | 1.89 ± 0.13
17 | ACCUAU | -0.223 ± 0.079 | 1.59 ± 0.055 | -0.113 ± 0.043 | 1.79 ± 0.11
18 | ACCUAA | -0.281 ± 0.029 | 1.57 ± 0.053 | 0.102 ± 0.075 | 1.76 ± 0.056
19 | GCGCGA | -0.455 ± 0.074 | 1.51 ± 0.12 | -0.199 ± 0.081 | 1.65 ± 0.037
20 | UCGAGU | -0.395 ± 0.033 | 1.47 ± 0.066 | -0.0571 ± 0.032 | 1.73 ± 0.11
21 | UCGAGC | -0.085 ± 0.098 | 1.736 ± 0.017 | 0.204 ± 0.013 | 1.84 ± 0.1
22 | UCGAGA | -0.546 ± 0.018 | 1.47 ± 0.0053 | -0.217 ± 0.11 | 1.71 ± 0.16
23 | GCGCUC | 0.151 ± 0.12 | 1.45 ± 0.13 | 0.324 ± 0.017 | 1.62 ± 0.17
24 | GCGCUA | -0.702 ± 0.086 | 1.65 ± 0.043 | -0.433 ± 0.079 | 1.78 ± 0.17

Row | Variant | FACS-Seq fitted mean (log10) [1] | normalized RNA/DNA level without ligand (log10) [2] | FACS-Seq fitted mean (log10) [3] | normalized RNA/DNA level with ligand (log10) [4]
25 | UCGCGA | -0.247 ± 0.071 | 1.668 ± 0.0022 | 0.0917 ± 0.061 | 1.8 ± 0.1
26 | UCGAUU | -0.335 ± 0.14 | 1.55 ± 0.074 | 0.0883 ± 0.079 | 1.74 ± 0.17
27 | UCGAUA | -0.515 ± 0.044 | 1.35 ± 0.17 | -0.119 ± 0.11 | 1.51 ± 0.084
28 | UCAUGU | -0.749 ± 0.0092 | 1.63 ± 0.073 | -0.517 ± 0.028 | 1.82 ± 0.077
29 | UCACGU | -0.191 ± 0.32 | 1.6 ± 0.044 | 0.0669 ± 0.07 | 1.79 ± 0.074
30 | UCACGA | -0.203 ± 0.066 | 1.632 ± 0.0055 | 0.146 ± 0.017 | 1.81 ± 0.091
31 | UCCUCG | 0.369 ± 0.066 | 1.797 ± 0.0034 | 0.448 ± 0.0052 | 1.91 ± 0.074
32 | UCCUCC | -0.766 ± 0.014 | 1.81 ± 0.047 | -0.515 ± 0.021 | 1.91 ± 0.17
33 | ACCCUC | -0.504 ± 0.046 | 1.784 ± 0.015 | -0.217 ± 0.028 | 1.91 ± 0.057
34 | ACCCUG | -0.354 ± 0.046 | 1.67 ± 0.022 | 0.0314 ± 0.09 | 1.83 ± 0.097
35 | CCCCAC | -0.891 ± 0.018 | 1.75 ± 0.033 | -0.665 ± 0.018 | 1.88 ± 0.097
36 | CCCCAU | -0.0362 ± 0.2 | 1.68 ± 0.022 | 0.163 ± 0.051 | 1.83 ± 0.11
37 | CCAUUG | -0.474 ± 0.062 | 1.28 ± 0.11 | -0.134 ± 0.034 | 1.55 ± 0.093
38 | ACAGAG | -0.3716 ± 0.0034 | 1.44 ± 0.14 | -0.0973 ± 0.031 | 1.59 ± 0.052
39 | ACAGAU | -0.584 ± 0.025 | 1.39 ± 0.072 | -0.289 ± 0.018 | 1.54 ± 0.096
40 | ACAGAA | -0.5622 ± 0.0028 | 1.29 ± 0.15 | -0.287 ± 0.057 | 1.47 ± 0.071
41 | GCAGAG | -0.424 ± 0.029 | 1.4 ± 0.08 | -0.199 ± 0.03 | 1.58 ± 0.043
42 | GCAGAA | -0.671 ± 0.025 | 1.27 ± 0.082 | -0.367 ± 0.017 | 1.5 ± 0.13
43 | ACCUCC | 0.0782 ± 0.15 | 1.78 ± 0.055 | 0.281 ± 0.037 | 1.86 ± 0.15
44 | ACAGCG | -0.358 ± 0.013 | 1.75 ± 0.0045 | -0.079 ± 0.031 | 1.86 ± 0.1
45 | CCAUGC | 0.318 ± 0.13 | 1.673 ± 0.0061 | 0.419 ± 0.012 | 1.82 ± 0.11
46 | CCCUGC | -0.0175 ± 0.34 | 1.792 ± 0.0034 | 0.142 ± 0.079 | 1.9 ± 0.16
47 | GCAUUG | -0.56 ± 0.071 | 1.5 ± 0.13 | -0.211 ± 0.025 | 1.71 ± 0.052
48 | GCCAAG | -0.6955 ± 0.0047 | 1.542 ± 0.0066 | -0.362 ± 0.081 | 1.67 ± 0.19

Row | Variant | FACS-Seq fitted mean (log10) [1] | normalized RNA/DNA level without ligand (log10) [2] | FACS-Seq fitted mean (log10) [3] | normalized RNA/DNA level with ligand (log10) [4]
49 | GCCAAU | -0.423 ± 0.1 | 1.57 ± 0.021 | -0.105 ± 0.08 | 1.75 ± 0.11
50 | CCGGAA | -0.512 ± 0.023 | 1.28 ± 0.09 | -0.209 ± 0.03 | 1.47 ± 0.12
51 | GCAUCU | -1.08 ± 0.08 | 1.614 ± 0.0091 | -0.903 ± 0.025 | 1.79 ± 0.094
52 | ACCCAC | 0.134 ± 0.14 | 1.69 ± 0.029 | 0.321 ± 0.024 | 1.84 ± 0.15
53 | UCGCCA | 0.132 ± 0.027 | 1.71 ± 0.032 | 0.335 ± 0.037 | 1.88 ± 0.073
54 | GCCGUG | -0.238 ± 0.056 | 1.6 ± 0.097 | 0.0457 ± 0.053 | 1.8 ± 0.06
55 | CCAGCA | -0.507 ± 0.13 | 1.73 ± 0.021 | -0.329 ± 0.02 | 1.86 ± 0.098
56 | UCGCAA | -0.351 ± 0.038 | 1.47 ± 0.019 | -0.0919 ± 0.063 | 1.69 ± 0.18
57 | GCCACC | -0.0159 ± 0.27 | 1.682 ± 0.011 | 0.0347 ± 0.1 | 1.84 ± 0.095
58 | GCACUC | -0.286 ± 0.015 | 1.5 ± 0.056 | 0.125 ± 0.0091 | 1.69 ± 0.17
59 | GCACUA | -0.172 ± 0.017 | 1.48 ± 0.023 | 0.225 ± 0.12 | 1.75 ± 0.062
60 | GCACUU | -0.492 ± 0.071 | 1.588 ± 0.015 | -0.235 ± 0.081 | 1.8 ± 0.063
61 | ACACUA | -0.717 ± 0.027 | 1.44 ± 0.038 | -0.414 ± 0.055 | 1.66 ± 0.15
62 | CCCGUC | -0.648 ± 0.28 | 1.73 ± 0.061 | -0.317 ± 0.1 | 1.87 ± 0.16
63 | CCCGUA | -0.351 ± 0.12 | 1.55 ± 0.067 | -0.0502 ± 0.012 | 1.72 ± 0.055
64 | GCCCUA | -0.142 ± 0.071 | 1.688 ± 0.013 | 0.0262 ± 0.042 | 1.85 ± 0.1
65 | CCCAUU | -0.0438 ± 0.1 | 1.637 ± 0.0022 | 0.204 ± 0.023 | 1.79 ± 0.13
66 | CCCAUA | -0.471 ± 0.0071 | 1.4 ± 0.11 | -0.164 ± 0.0037 | 1.65 ± 0.09
67 | CCGAUG | -0.912 ± 0.22 | 1.09 ± 0.038 | -0.634 ± 0.095 | 1.32 ± 0.16
68 | GCGACG | -0.315 ± 0.099 | 1.55 ± 0.096 | -0.216 ± 0.13 | 1.73 ± 0.076
69 | GCAUAC | -0.0759 ± 0.13 | 1.42 ± 0.19 | 0.23 ± 0.036 | 1.6 ± 0.072
70 | GCAUAG | -0.627 ± 0.0092 | 1.44 ± 0.085 | -0.39 ± 0.049 | 1.66 ± 0.093
71 | ACCGAA | -0.328 ± 0.091 | 1.44 ± 0.08 | -0.063 ± 0.13 | 1.62 ± 0.12
72 | CCCAAA | -0.275 ± 0.06 | 1.48 ± 0.062 | 0.0473 ± 0.081 | 1.69 ± 0.1
